# Data as given in patent US6555105 (GlaxoSmithKline, dated 2003).
# T1: recombinant CC-CKR1 receptor (UniProt P32246 1-355, limits assumed)
# T1 construct: whole, on cells; The assay used either THP-1 cells or COS cells expressing recombinant CC-CKR1; also called CCKR1 receptors
# T1 sequence (looked up): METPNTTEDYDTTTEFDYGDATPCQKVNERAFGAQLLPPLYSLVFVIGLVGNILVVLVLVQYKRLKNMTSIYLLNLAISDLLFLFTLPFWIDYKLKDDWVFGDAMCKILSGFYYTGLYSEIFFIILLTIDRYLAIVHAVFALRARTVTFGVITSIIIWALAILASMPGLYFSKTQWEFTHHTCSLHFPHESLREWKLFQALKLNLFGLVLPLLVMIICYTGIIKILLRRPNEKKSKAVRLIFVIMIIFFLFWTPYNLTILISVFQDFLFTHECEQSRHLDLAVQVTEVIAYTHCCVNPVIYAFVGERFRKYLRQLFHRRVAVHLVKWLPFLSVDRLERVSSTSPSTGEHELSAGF
# B1: methionylated RANTES (ligand)
# chain: MSPYSSDTTPCCFAYIARPLPRAHIKEYFYTSGKCSNPAVVFVTRKNRQVCANPEKKWVREYINSLEMS
# notes: also called Met-RANTES
# Biological target: T1, recombinant CC-CKR1 receptor
# Experiment: radioligand competition on cells (THP-1 or COS expressing CC-CKR1), [125I]RANTES tracer, competitor Met-RANTES
# Experimental: The competition assay was carried out in 96 well multi-screen filter-phase (Millipore, MADV N6500) which had been pretreated for 2 h with 50 mM HEPES buffer, pH 7.2 containing 1 mM CaCl_2, 5 mM MgCl_2, and 0.5% BSA, (binding buffer). The assay was performed using either THP-1 cells or COS cells expressing the recombinant CC-CKR1 receptor (Neote, K., DiGregorio, Mak, J. Y., Horuk, R., and Schall, T. J., (1993) Molecular cloning, functional expression, and signalling characteristics of a C—C chemokine receptor, *Cell* 72 415–425; Gao, J. L., et al, *J. Exp. Med.* 177 1421–7 (1993)). Each well contained 10^5 cells in a volume of 150 μl of binding buffer containing 0.4 nM [I^125]Mip-1a or 0.4 nM [I^125]RANTES (new England Nuclear, Nex 277) and varying concentrations of competing Met-RANTES. Assays were performed in triplicate. After 90 min incubation at 4° C., the cells were washed 4 times with 200 μl ice cold binding buffer containing 0.5 M NaCl which was removed by aspiration. The filters were dried, 3.5 ml Ultima Gold Scintillation fluid added (Packard) and counted on a Beckman LS5000 counter.
binder,measurement,value
B1,binding result,binds
